Data taken from patent publication US20210269480A1 (published 2021).
*1 amine or outer side, *2 acyl side, *3 side chain or, on linkers, in order; H or OH if unused. Bridges are numbered along the chain shown (N, C = ends). Primed or numbered codes have the meaning given here. Where no end group is shown, it is not given here. [ ]: non-standard residue; d: D form. TATA = O=C(CC[*:1])N1CN(C(=O)CC[*:2])CN(C(=O)CC[*:3])C1; 1Nal = N[C@@H](Cc1cccc2ccccc12)C(=O)O; PABC = O=C(OCc1ccc(N[*:1])cc1)[*:2]; Glutaryl = O=C(CCCC(=O)[*:2])[*:1]; Cya = N[C@@H](CS(=O)(=O)O)C(=O)O; Hyp = O=C(O)[C@@H]1C[C@@H](O)CN1; dCya = N[C@H](CS(=O)(=O)O)C(=O)O; hArg = N=C(N)NCCCC[C@H](N)C(=O)O; Cit = NC(=O)NCCC[C@H](N)C(=O)O; MMAE = monomethyl auristatin E; PABC′ = p-aminobenzylcarbamate; βAla = NCCC(=O)O; Sar = CNCC(=O)O

T1: human Nectin-4 (human, UniProt Q96NY8 32-349)
T1 construct: a Gly32-Ser349 FLAG construct is described only under the SPR assay; also called PVRL4
T1 sequence (looked up): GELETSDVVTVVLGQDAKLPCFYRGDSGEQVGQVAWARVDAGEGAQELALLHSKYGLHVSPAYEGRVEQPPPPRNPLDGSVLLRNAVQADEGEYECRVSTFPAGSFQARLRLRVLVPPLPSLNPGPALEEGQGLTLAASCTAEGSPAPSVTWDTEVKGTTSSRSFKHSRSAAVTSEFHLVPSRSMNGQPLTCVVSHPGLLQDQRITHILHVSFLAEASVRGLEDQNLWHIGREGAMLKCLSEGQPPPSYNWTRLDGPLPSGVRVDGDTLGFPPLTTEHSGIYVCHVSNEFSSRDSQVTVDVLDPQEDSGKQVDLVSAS

T2: Human Nectin-4 (residues Gly32-Ser349) with C-terminal FLAG tag, biotinylated (human, UniProt Q96NY8 32-349, randomly biotinylated with EZ-Link Sulfo-NHS-LC-LC-Biotin)
T2 construct: range 32-349; Captured through biotin on a streptavidin CM5 chip in the SPR assay; also called PVRL4; not shown: C-terminal FLAG tag
T2 sequence (looked up): T1 sequence (looked up)

B1: BCY472 (peptide)
peptide: ACVTTSYDCWVRLGQCA
modifications: linker 2-9-16 via TATA; not fully specified
notes: Direct FP used peptides with a fluorescent tag; also called 80-11-01
B2: BCY488 (peptide)
peptide: ACWPLDSYWCARICA
modifications: linker 2-10-14 via TATA; not fully specified
notes: Direct FP used peptides with a fluorescent tag; also called 80-10-00
B3: BCY471 (peptide)
peptide: ACVTTSYDCFLHLLGCA
modifications: linker 2-9-16 via TATA; not fully specified
notes: Direct FP used peptides with a fluorescent tag; also called 80-11-00
B4: BCY3406 (peptide)
peptide: ACVTTSYDCWVTLGHCSRF
modifications: linker 2-9-16 via TATA; not fully specified
notes: Direct FP used peptides with a fluorescent tag; also called 80-11-08-T01
B5: BCY462 (peptide)
peptide: VDWCAPLDDYWCDRICA
modifications: linker 4-12-16 via TATA; not fully specified
notes: Direct FP used peptides with a fluorescent tag; also called 80-10-12-T01
B6: BCY8253 (peptide)
peptide: {MMAE-PABC′-Cit-Val-Glutaryl-βAla}-[Sar][Sar][Sar][Sar][Sar][Sar][Sar][Sar][Sar][Sar]CP[1Nal][dR]CL[hArg]HWSTP[Hyp]WC
modifications: linker 11-15-25 via TATA
notes: also called MMAE-PABC-Cit-Val-Glutaryl-BCY8231
B7: BCY8254 (peptide)
peptide: {MMAE-PABC′-Cit-Val-Glutaryl-βAla}-[Sar][Sar][Sar][Sar][Sar][Sar][Sar][Sar][Sar][Sar]CP[1Nal][dR]CM[hArg]NWSTP[Hyp]WC
modifications: linker 11-15-25 via TATA
notes: also called MMAE-PABC-Cit-Val-Glutaryl-BCY8232
B8: BCY8255 (peptide)
peptide: {MMAE-PABC′-Cit-Val-Glutaryl-βAla}-[Sar][Sar][Sar][Sar][Sar][Sar][Sar][Sar][Sar][Sar]CP[1Nal][dR]CM[hArg]DWSTP[Hyp]WC
modifications: linker 11-15-25 via TATA
notes: also called MMAE-PABC-Cit-Val-Glutaryl-BCY8235
B9: BCY8783 (peptide)
peptide: {MMAE-PABC′-Cit-Val-Glutaryl-βAla}-[Sar][Sar][Sar][Sar][Sar][Sar][Sar][Sar][Sar][Sar]CP[1Nal][dCya]CM[hArg]DWSTP[Hyp]WC
modifications: linker 11-15-25 via TATA
notes: also called MMAE-PABC-Cit-Val-Glutaryl-BCY8269
B10: BCY7683 (peptide)
peptide: {MMAE-PABC-Cit-Val-Glutaryl-βAla}-[Sar][Sar][Sar][Sar][Sar]CPF[dD]CM[hArg]NWSWPIWC
modifications: linker 6-10-20 via TATA
notes: also called MMAE-PABC-Cit-Val-Glutaryl-BCY7556
B11: BCY8245 (peptide)
peptide: {MMAE-PABC-Cit-Val-Glutaryl-βAla}-[Sar][Sar][Sar][Sar][Sar][Sar][Sar][Sar][Sar][Sar]CP[1Nal][dD]CM[hArg]DWSTP[Hyp]WC
modifications: linker 11-15-25 via TATA
notes: also called BT8009; MMAE-PABC-Cit-Val-Glutaryl-BCY8234
B12: BCY7825 (peptide)
peptide: {MMAE-PABC′-Cit-Val-Glutaryl-βAla}-[Sar][Sar][Sar][Sar][Sar][Sar][Sar][Sar][Sar][Sar]CPF[dD]CM[hArg]NWSTPIWC
modifications: linker 11-15-25 via TATA
notes: also called MMAE-PABC-Cit-Val-Glutaryl-BCY7814

Target: Human Nectin-4 (residues Gly32-Ser349) with C-terminal FLAG tag, biotinylated (human) (UniProt Q96NY8)
Test: SPR (Biacore), biotinylated human Nectin-4 on streptavidin chip

Kd [nM] | Binder
2 | {Ac-βAla}-[Sar][Sar][Sar][Sar][Sar][Sar][Sar][Sar][Sar][Sar]CP[1Nal][dCya]CM[hArg][Cya]WSTP[Hyp]WC (linker 11-15-25 via TATA (inferred)) [BCY8280]
0.662 | {MMAE-PABC′-Cit-Val-Glutaryl-βAla}-[Sar][Sar][Sar][Sar][Sar][Sar][Sar][Sar][Sar][Sar]CP[1Nal][dCya]CM[hArg][Cya]WSTP[Hyp]WC (linker 11-15-25 via TATA (inferred)) [BCY8784]
6.11 | {Ac-βAla}-[Sar][Sar][Sar][Sar][Sar][Sar][Sar][Sar][Sar][Sar]CP[1Nal][dD]CM[Cya][Cya]WSTP[Hyp]WC (linker 11-15-25 via TATA (inferred)) [BCY8281]
0.94 | Ac-CP[1Nal][dD]CM[hArg][Cya]WSTP[Hyp]WC (linker 1-5-15 via TATA (inferred)) [BCY8161]
1.92 | {Ac-βAla}-[Sar][Sar][Sar][Sar][Sar][Sar][Sar][Sar][Sar][Sar]CP[1Nal][dD]CM[hArg][Cya]WSTP[Hyp]WC (linker 11-15-25 via TATA (inferred)) [BCY8278]

Target: T1, human Nectin-4
Test: FP direct binding, fluorescent peptide
Protocol: Affinity of the peptides of the invention for human Nectin-4 (Ki) was determined using a fluorescence polarisation assay, in accordance with the methods disclosed in WO 2016/067035. […] Measurements were conducted on a BMG PHERAstar FS equipped with an “FP 485 520 520” optic module which excites at 485 nm and detects parallel and perpendicular emission at 520 nm. The PHERAstar FS was set at 25° C. with 200 flashes per well and a positioning delay of 0.1 second, with each well measured at 5 to 10 minute intervals for 60 minutes. […] Data was analysed using Systat Sigmaplot version 12.0. mP values were fit to a user defined quadratic equation to generate a Kd value: f=ymin+(ymax−ymin)/Lig*((x+Lig+Kd)/2-sqrt((((x+Lig+Kd)/2)\hat{ }2)-(Lig*x))).

Ki [nM] | Binder
502 | B1
208 | B2
888 | B3
745 | carboxyfluorescein-CPF[dD]CM[hArg]NWSTPIWC (linker 1-5-15 via TATA) [BCY8208]
30 | B4
5 | ACPFGCMKNWSWPIWCA (linker 2-6-16 via TATA; not fully specified (N-terminus), also called FI-A-(SQ ID NO: 1)-A) [80-09-02-N006]
269 | B5
72 | QKWCAPLSDYWCNRICA (linker 4-12-16 via TATA; not fully specified, also called 80-10-13-T01) [BCY3400]

Target: T2, Human Nectin-4 (residues Gly32-Ser349) …
Test: SPR (Biacore), biotinylated human Nectin-4 on streptavidin chip

Kd [nM] | Binder
1.62 | Ac-CP[1Nal][dR]CM[hArg]DWSTPIWC (linker 1-5-15 via TATA, Bicyclic peptide cyclised with TATA) [BCY8215]
3.31 | {Ac-βAla}-[Sar][Sar][Sar][Sar][Sar][Sar][Sar][Sar][Sar][Sar]CP[1Nal][dCya]CM[Cya]DWSTP[Hyp]WC (linker 11-15-25 via TATA, Bicyclic peptide cyclised with TATA) [BCY8279]
1.9 | Ac-CP[1Nal][dR]CM[Hyp]DWSTP[Hyp]WC (linker 1-5-15 via TATA, Bicyclic peptide cyclised with TATA) [BCY8194]
0.86 | {Ac-βAla}-[Sar][Sar][Sar][Sar][Sar][Sar][Sar][Sar][Sar][Sar]CP[1Nal][dCya]CM[hArg]DWSTP[Hyp]WC (linker 11-15-25 via TATA, Bicyclic peptide cyclised with TATA) [BCY8276]
5.99 | {Ac-βAla}-[Sar][Sar][Sar][Sar][Sar][Sar][Sar][Sar][Sar][Sar]CP[1Nal][dD]CM[Cya]DWSTP[Hyp]WC (linker 11-15-25 via TATA, Bicyclic peptide cyclised with TATA) [BCY8277]
1.3 | Ac-CP[1Nal][dR]CMPDWSTP[Hyp]WC (linker 1-5-15 via TATA, Bicyclic peptide cyclised with TATA) [BCY8193]

Target: T2, Human Nectin-4 (residues Gly32-Ser349) …
Test: as above
Remark: another data set of the same source

Kd [nM] | Binder
6.22 | B6
4.11 | B7
8.58 | B8
0.804 | B9
27.1 | B10
5.12 | B11
11.6 | B12

Target: T1, human Nectin-4
Test: FP competition, tracer SEQ ID NO 217
Protocol: Peptides were diluted to an appropriate concentration in assay buffer as described in the direct binding assay with a maximum of 5% DMSO, then serially diluted 1 in 2. […] Measurements were conducted as for the direct binding assay, however the gain was determined prior to the first measurement. Data analysis was in Systat Sigmaplot version 12.0 where the mP values were fit to a user defined cubic equation to generate a Ki value: […]

Ki [nM] | Binder
47 | QKWCAPLSDYWCNRICA (linker 4-12-16 via TATA; not fully specified, also called 80-10-13-T01) [BCY3400]
4 | Ac-CP[1Nal][dD]CM[hArg][Cya]WSTP[Hyp]WC (linker 1-5-15 via TATA (inferred)) [BCY8161]
